Measured values published in publication PMC6367351 (Nature Communications, 2019).
Where no end group is shown, it is not given here.

Key:
DmcElp3 = target: T1, DmcElp3 (Dehalococcoides mccartyi, UniProt A0A1C7D1B7); test: acetyl-CoA hydrolysis by purified protein, induced by yeast bulk tRNA (weak); format: biochemical
T1 construct: gene cbdbA595

MinElp3 [1] = target: T2, MinElp3 (Methanocaldococcus infernus, UniProt D5VRB9, DEL466-486/INS466GSGSG); test: ITC (also tRNA-induced acetyl-CoA hydrolysis); format: binding
T2 construct: gene Metin_0452

MinElp3 [2] = target: T3, MinElp3 (Methanocaldococcus infernus, UniProt D5VRB9); test: ITC (also tRNA-induced acetyl-CoA hydrolysis); format: binding
T3 construct: gene Metin_0452; full length
T3 sequence (D5VRB9 1-534): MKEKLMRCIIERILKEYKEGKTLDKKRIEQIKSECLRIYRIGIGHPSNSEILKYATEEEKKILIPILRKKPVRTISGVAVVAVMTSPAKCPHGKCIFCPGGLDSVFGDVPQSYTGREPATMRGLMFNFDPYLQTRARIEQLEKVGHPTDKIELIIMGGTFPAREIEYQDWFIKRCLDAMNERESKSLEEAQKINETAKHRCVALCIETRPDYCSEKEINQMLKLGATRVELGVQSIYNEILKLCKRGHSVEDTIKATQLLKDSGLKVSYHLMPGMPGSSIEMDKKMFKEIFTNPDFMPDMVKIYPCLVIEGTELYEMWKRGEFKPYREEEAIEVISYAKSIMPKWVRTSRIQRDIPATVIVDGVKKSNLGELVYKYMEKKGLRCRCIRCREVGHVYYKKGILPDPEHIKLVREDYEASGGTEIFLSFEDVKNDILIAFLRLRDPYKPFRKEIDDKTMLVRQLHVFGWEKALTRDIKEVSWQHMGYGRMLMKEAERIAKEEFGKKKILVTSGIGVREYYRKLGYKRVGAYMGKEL

MinElp3 [3] = target: T4, MinElp3 (Methanocaldococcus infernus, UniProt D5VRB9, K150A); test: acetyl-CoA binding measurement (Supplementary Fig. 6b)
T4 construct: gene Metin_0452
T4 sequence (D5VRB9 1-534 K150A): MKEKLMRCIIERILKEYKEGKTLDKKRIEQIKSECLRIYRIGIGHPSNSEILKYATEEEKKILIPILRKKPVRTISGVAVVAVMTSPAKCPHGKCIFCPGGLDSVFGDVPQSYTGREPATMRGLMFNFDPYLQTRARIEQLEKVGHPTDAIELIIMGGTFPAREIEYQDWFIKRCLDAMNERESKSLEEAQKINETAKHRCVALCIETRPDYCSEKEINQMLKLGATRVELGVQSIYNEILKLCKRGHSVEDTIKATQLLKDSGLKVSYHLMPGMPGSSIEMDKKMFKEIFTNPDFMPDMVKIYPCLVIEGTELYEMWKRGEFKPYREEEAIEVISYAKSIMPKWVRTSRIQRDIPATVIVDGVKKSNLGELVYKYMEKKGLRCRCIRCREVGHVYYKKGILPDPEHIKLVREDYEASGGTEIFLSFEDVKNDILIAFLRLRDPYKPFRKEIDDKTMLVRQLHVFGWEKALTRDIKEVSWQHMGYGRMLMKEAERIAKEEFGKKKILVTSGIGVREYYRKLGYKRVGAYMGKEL

MinElp3 [4] = target: T5, MinElp3 (Methanocaldococcus infernus, UniProt D5VRB9 1-534); test: MST; conditions: EMSA: 25 C 30 min, 6% native PAGE at 4 C, tRNA stored in 20 mM HEPES pH 7.5, 150 mM NaCl, 5 mM DTT, 1 mM MgCl2, MST buffer not given in material
T5 sequence: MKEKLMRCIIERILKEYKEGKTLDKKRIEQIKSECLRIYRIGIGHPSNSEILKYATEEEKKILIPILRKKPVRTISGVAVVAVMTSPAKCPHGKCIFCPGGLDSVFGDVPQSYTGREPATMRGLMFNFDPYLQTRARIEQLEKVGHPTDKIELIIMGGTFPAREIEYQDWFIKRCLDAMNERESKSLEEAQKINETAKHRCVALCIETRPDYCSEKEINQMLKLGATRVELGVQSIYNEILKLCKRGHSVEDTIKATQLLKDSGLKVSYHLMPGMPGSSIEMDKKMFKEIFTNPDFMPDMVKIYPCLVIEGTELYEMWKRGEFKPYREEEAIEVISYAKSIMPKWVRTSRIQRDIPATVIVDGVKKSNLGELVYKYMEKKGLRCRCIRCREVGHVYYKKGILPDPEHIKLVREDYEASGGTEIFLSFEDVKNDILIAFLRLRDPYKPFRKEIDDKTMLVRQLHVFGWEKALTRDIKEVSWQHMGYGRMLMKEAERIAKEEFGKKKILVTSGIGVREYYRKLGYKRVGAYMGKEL

[5] = system: DmcElp3 (Dehalococcoides mccartyi); test: MST; conditions: EMSA: 25 C 30 min, 6% native PAGE at 4 C; tRNA stored in 20 mM HEPES pH 7.5, 150 mM NaCl, 5 mM DTT, 1 mM MgCl2; MST buffer not given in material
[6] = system: ScMinElp3 (Methanocaldococcus infernus / Saccharomyces cerevisiae chimera); test: MST; conditions: mean of 229, 162, 75; EMSA: 25 C 30 min, 6% native PAGE at 4 C; tRNA stored in 20 mM HEPES pH 7.5, 150 mM NaCl, 5 mM DTT, 1 mM MgCl2; MST buffer not given in material
[7] = system: HsMinElp3 (Methanocaldococcus infernus / Homo sapiens chimera); test: MST; conditions: mean of 180, 141, 108; EMSA: 25 C 30 min, 6% native PAGE at 4 C; tRNA stored in 20 mM HEPES pH 7.5, 150 mM NaCl, 5 mM DTT, 1 mM MgCl2; MST buffer not given in material
[8] = system: MinElp3Δ1-41 (Methanocaldococcus infernus); test: MST; conditions: legend omits CCA; wt data identical to the CCA set; EMSA: 25 C 30 min, 6% native PAGE at 4 C; tRNA stored in 20 mM HEPES pH 7.5, 150 mM NaCl, 5 mM DTT, 1 mM MgCl2; MST buffer not given in material
[9] = system: MinElp3Δ1-19 (Methanocaldococcus infernus); test: MST; conditions: legend omits CCA; wt data identical to the CCA set; EMSA: 25 C 30 min, 6% native PAGE at 4 C; tRNA stored in 20 mM HEPES pH 7.5, 150 mM NaCl, 5 mM DTT, 1 mM MgCl2; MST buffer not given in material
[10] = target: T6, MinElp3 (Methanocaldococcus infernus) (UniProt D5VRB9); test: MST; conditions: EMSA: 25 C 30 min, 6% native PAGE at 4 C; tRNA stored in 20 mM HEPES pH 7.5, 150 mM NaCl, 5 mM DTT, 1 mM MgCl2; MST buffer not given in material
T6 sequence: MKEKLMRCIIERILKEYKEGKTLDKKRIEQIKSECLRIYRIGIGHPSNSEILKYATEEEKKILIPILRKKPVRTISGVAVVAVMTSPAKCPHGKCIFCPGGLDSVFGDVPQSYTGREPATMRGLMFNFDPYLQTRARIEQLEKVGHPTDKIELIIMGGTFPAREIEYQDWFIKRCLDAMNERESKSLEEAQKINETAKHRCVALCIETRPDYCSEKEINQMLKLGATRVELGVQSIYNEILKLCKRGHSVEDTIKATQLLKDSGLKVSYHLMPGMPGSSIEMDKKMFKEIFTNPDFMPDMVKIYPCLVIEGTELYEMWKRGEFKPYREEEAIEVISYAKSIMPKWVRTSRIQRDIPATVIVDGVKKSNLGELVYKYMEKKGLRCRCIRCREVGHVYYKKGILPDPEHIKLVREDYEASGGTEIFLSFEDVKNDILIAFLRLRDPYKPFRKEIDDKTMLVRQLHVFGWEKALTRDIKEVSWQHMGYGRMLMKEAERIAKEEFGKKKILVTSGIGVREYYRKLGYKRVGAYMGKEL

[11] = target: T7, Methanocaldococcus infernus Elp3, full length (Methanocaldococcus infernus, UniProt D5VRB9 1-534); test: ITC
T7 chain: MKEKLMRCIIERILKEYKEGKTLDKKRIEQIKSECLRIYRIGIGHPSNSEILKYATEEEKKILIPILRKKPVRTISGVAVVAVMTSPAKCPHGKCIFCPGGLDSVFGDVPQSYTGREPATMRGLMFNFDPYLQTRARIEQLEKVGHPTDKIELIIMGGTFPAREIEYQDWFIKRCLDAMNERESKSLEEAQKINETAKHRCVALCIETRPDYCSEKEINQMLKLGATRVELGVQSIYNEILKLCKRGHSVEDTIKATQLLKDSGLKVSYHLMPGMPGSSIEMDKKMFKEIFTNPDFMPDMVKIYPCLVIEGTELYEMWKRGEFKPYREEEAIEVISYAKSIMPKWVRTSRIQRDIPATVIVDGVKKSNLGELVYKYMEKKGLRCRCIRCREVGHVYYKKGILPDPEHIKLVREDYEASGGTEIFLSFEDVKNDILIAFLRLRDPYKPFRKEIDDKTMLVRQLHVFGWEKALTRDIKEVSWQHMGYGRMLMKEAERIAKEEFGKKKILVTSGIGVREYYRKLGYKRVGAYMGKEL

T1 sequence (A0A1C7D1B7 whole entry): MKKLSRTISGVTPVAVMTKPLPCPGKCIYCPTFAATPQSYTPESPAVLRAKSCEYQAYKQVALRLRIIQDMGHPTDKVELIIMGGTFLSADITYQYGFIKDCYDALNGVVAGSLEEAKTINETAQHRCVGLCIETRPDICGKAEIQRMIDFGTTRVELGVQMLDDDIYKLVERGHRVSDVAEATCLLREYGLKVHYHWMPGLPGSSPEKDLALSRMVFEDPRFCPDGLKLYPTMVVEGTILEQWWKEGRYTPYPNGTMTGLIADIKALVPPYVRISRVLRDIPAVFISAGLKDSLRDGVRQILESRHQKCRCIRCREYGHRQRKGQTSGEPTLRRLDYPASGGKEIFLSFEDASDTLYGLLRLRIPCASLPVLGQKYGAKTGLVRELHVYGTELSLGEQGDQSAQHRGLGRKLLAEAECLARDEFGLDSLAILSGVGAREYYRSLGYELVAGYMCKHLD
T2 sequence (D5VRB9 other isoform, or with tags, fused parts or gaps DEL466-486/INS466GSGSG): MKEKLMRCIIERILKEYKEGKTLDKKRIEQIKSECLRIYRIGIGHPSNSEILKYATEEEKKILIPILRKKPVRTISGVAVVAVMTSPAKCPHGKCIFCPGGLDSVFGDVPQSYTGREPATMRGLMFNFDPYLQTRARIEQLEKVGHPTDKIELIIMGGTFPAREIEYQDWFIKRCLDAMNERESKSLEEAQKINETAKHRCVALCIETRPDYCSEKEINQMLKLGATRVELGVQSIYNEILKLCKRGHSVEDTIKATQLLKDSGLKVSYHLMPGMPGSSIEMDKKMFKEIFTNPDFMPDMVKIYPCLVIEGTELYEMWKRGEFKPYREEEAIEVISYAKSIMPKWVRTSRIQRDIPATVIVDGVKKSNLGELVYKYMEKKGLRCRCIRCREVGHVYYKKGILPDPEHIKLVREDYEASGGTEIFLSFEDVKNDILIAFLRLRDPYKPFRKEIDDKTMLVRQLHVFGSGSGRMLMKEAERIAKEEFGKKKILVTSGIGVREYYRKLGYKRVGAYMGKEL

## CC(=O)SCCNC(=O)CCNC(=O)[C@H](O)C(C)(C)COP(=O)(O)OP(=O)(O)OC[C@H]1O[C@@H](n2cnc3c(N)ncnc32)[C@H](O)[C@@H]1OP(=O)(O)O [acetyl-CoA]
DmcElp3
  acetyl-CoA hydrolysis by purified protein, induced by yeast bulk tRNA (weak): DmcElp3, on the other hand, showed ~5-times reduced-induced hydrolysis activity
MinElp3 [1]
  Kd: 108000 ± 55800 nM
MinElp3 [2]
  Kd: 135000 ± 55300 nM
MinElp3 [3]
  acetyl-CoA binding measurement (Supplementary Fig. 6b): As K150A shows normal tRNA and acetyl-CoA binding, we believe that it might be directly involved the hydrolysis reaction

## (Dmc)tRNAGluUUC
MinElp3 [4]; mean of 495, 434, 596
  Kd: 508 nM

## (Dmc)tRNAGluUUC(CCA)
[5]
  Kd: 1410 nM
[6]
  Kd: 155 nM
[7]
  Kd: 143 nM
[8]
  Kd: 980 nM
MinElp3 [4]
  Kd: 50 nM
[9]
  Kd: 210 nM

## (Sc)tRNACysGCA
MinElp3 [4]; replicates 240, 261, 280 nM
  Kd: 260 nM

## (Sc)tRNASerUGA
MinElp3 [4]; replicates 322, 539, 293 nM
  Kd: 370 nM

## GCUCGUAUGGCGCAGUGGUAGCGCAGCAGAUUGCAAAUCUGUUGGUCCUUAGUUCGAUCCUGAGUGCGAGCUGCGUCUUCCCAUGGGUGUAUUCGGUCG [(Sc)tRNACysGCA]
[10]
  Kd: 260 nM

## YSTGGKAPRK-NH2 (not fully specified (N-terminus)) [histone H3 peptide H3(10–18) with an added N-terminal tyrosine]
[11]
  Kd: > 350000 nM
